In US20110027291A1, “METHODS, SYSTEMS AND PRODUCTS FOR PREDICTING RESPONSE OF TUMOR CELLS TO A THERAPEUTIC AGENT AND TREATING A PATIENT ACCORDING TO THE PREDICTED RESPONSE” (MERRIMACK PHARMACEUTICALS, INC., priority 2008, published 2011):
Entries after “also recorded” stand apart in the source; their conditions may differ.

What was measured:
[1] = test system: ACHN xenograft tumor (renal cancer cell line); assay: Xenograft efficacy study with Ab #6: ACHN; type: in vivo, nu/nu mice
Source text: (§1) In this example, four xenograft tumor models were used to identify tumor cell lines that responded to treatment with the anti-ErbB3 antibody Ab #6. The four xenograft tumor models studied represent different indications: MALME3M (melanoma cancer line; ATCC No. HTB-64), ADRr (ovarian cancer cell line; NCI-60, cosmic sample ID No. 905987), ACHN (renal cancer cell line; ATCC No. CRL-1611) and DU145 (prostate cancer cell line; ATCC No. HTB-81).
(§2) In the xenograft tumor models, mice (nu/nu mice: 3-4 week old female mice, T-cell deficient; outbred; Albino background; from Charles River Labs, Wilmington, Mass.) are implanted in the right flank with […] cells/mouse (depending on cell line) in 200 μl via subcutaneous injection. Mice are monitored for initial tumor growth. Tumor cells are allowed to grow for several days until the tumor volume is approximately 200 mm^3. The tumor volume is calculated as V=(π/6 (L×W^2). The mice are treated with the Ab #6 antibody at a dosage of 600 μg/injection every 3 days (qd3). Control mice are treated with phosphate buffered saline (PBS).
(§3) Tumor volume is measured for 60-80 days.
(§4) As a measure of responsiveness of the tumor to Ab #6, the exponential growth rate is determined, which described the experimental data best. The following formula is used to describe the exponential growth. […]

IGROV1 xenograft tumor = assay: Xenograft study with Ab #6 (predicted set): IGROV1; type: in vivo, mice
Experimental: as §2
(§5) To test these model predictions, three additional in vivo xenograft studies were performed. The IGROV1, OVCAR8 and SKOV3 cell lines were used in xenograft studies conducted as described in Example 1, wherein mice were treated with 600 μg of Ab #6 every 3 days or with PBS as a control. The xenograft responses, as determined by changes in tumor volume (in mm^3) over time, are summarized in the graphs of FIGS. 9A-9C. Again, the Growth Rate Reduction (GRR) value for each cell line was calculated using the following formula:
(§6) Growth Rate Reduction=1−(Ab #6 Growth Rate)/(PBS Growth Rate)

SKOV3 xenograft tumor = assay: Xenograft study with Ab #6 (predicted set): SKOV3; type: in vivo, mice
Experimental: as §2, §5, §6

ErbB3 [2] = target: T1, ErbB3 (UniProt P21860 20-643, limits assumed); assay: Kinexa
T1 construct: Elsewhere it speaks of the ectodomain of human ErbB3; also called E3; HER3

ErbB3 [3] = target: ErbB3 (Homo sapiens, UniProt P21860); assay: Ab #6 rate constants measured by Kinexa (inhibitor parameter values, Table 13); type: binding
ErbB3 [4] = target: T1, ErbB3; assay: Kinexa; same on-rate as 1.43e5 M^-1s^-1, converted to model units per well
BT474 xenograft tumor = assay: Xenograft study with Ab #6 (MM-121): BT474; type: in vivo, mice
Source text: In this example, the data obtained for the four cell lines examined in the xenograft studies described in Example 1 (ADRr, ACHN, DU154 and MALME3M) and four cell lines including the three examined in the xenograft studies described in Example 7 (IGROV 1, OVCAR8 and SKOV3), as well as a fourth, BT474, also examined in xenograft studies as described in Example 7, were further examined to determine whether direct biomarkers for Ab #6 (MM-121) responsiveness could be identified.
Next, it was examined whether the concentration of heregulin (HRG) in combination with one receptor concentration (e.g., ErbB1, ErbB3) effectively classified the xenograft data into responders and non-responders. As illustrated in the graph of FIG. 11 (in which the log of the concentration of HRG is plotted against the log of the concentration of ErbB1), these two concentration measurements, HRG and one of the ErbB receptors, were able to accurately classify the xenograft data into responders and non-responders. More specifically, the data for four non-responders BT474, MALME3, ADRr and IGROV1, were separable from the data for four responders, OVCAR8, SKOV3, ACHN, and DU154, thereby allowing for classification of non-responders versus responders. […] For this example, EGFR is measured by FACS and HRG is measured by RT-PCR. […]

OVCAR8 xenograft tumor = assay: Xenograft study with Ab #6 (predicted set): OVCAR8; type: in vivo, mice
Experimental: as §2, §5, §6

ZR75-1 xenografts = assay: Nude mouse xenograft test of MM-121: ZR75-1; type: in vivo
Source text: (§7) FIG. 11 is a graph depicting the ability of an anti-ErbB3 antibody (Ab #6, MM-121) to inhibit proliferation of ACHN cells and cells of other cell lines. The center line of the three parallel diagonal lines represents the line computed to maximally separate MM-121 responders from non-responders. Predicted responder MDA-MB-231 was subsequently tested as nude mouse xenografts and was confirmed as a responder (i.e., growth of MDA-MB-231 as nude mouse xenografts was inhibited by MM-121 treatment). Other predicted responders would not grow adequately as xenografts and so could not be tested. Predicted non-responders ZR75-1 and HOP92 were subsequently tested as nude mouse xenografts and were confirmed as non-responders (i.e., growth of each as nude mouse xenografts was not inhibited by MM-121 treatment). Other predicted non-responders have not yet been tested experimentally.

[5] = test system: ADRr xenograft tumor (ovarian cancer cell line); assay: Xenograft efficacy study with Ab #6: ADRr; type: in vivo, nu/nu mice
Source text: as §1, §2, §3, §4

[6] = test system: MALME3M xenograft tumor (melanoma cancer line); assay: Xenograft efficacy study with Ab #6: MALME3M; type: in vivo, nu/nu mice
Source text: as §1, §2, §3, §4

HOP92 xenografts = assay: Nude mouse xenograft test of MM-121: HOP92; type: in vivo
Source text: as §7

MDA-MB-231 xenografts = assay: Nude mouse xenograft test of MM-121: MDA-MB-231; type: in vivo
Source text: as §7

[7] = test system: DU145 xenograft tumor (prostate cancer cell line); assay: Xenograft efficacy study with Ab #6: DU145; type: in vivo, nu/nu mice
Source text: as §1, §2, §3, §4

[8] = Ab #6 600 μg/injection every 3 days vs PBS
[9] = 600 μg of Ab #6 every 3 days vs PBS
[10] = Ab #6 600 μg/injection every 3 days vs PBS, negative GRR set to zero

B1: anti-ErbB3 monoclonal antibody Ab #6 (antibody, V domains shown)
VH: EVQLLESGGGLVQPGGSLRLSCAASGFTFSHYVMAWVRQAPGKGLEWVSSISSSGGWTLYADSVKGRFTISRDNSKNTLYLQMNSLRAEDTAVYYCTRGLKMATIFDYWGQGTLVTVSS
VL: QSALTQPASVSGSPGQSITISCTGTSSDVGSYNVVSWYQQHPGKAPKLIIYEVSQRPSGVSNRFSGSKSGNTASLTISGLQTEDEADYYCCSYAGSSIFVIFGGGTKVTVL
notes: also called MM-121
- GRR (Tumor Growth Rate Reduction) [1, 8]: 28.0%
- effect of antibody treatment on tumor growth (in words) ([1]; vs PBS control): inhibited tumor growth; also recorded: mid-range responsiveness
- experimentally observed responsiveness to Ab #6 based on GRR value (IGROV1 xenograft tumor): non-responder
- GRR (Tumor Growth Rate Reduction) (IGROV1 xenograft tumor; [9]): 6.3%
- experimentally observed responsiveness to Ab #6 based on GRR value (SKOV3 xenograft tumor): responders
- GRR (Tumor Growth Rate Reduction) (SKOV3 xenograft tumor; [9]): 19.6%
- koff (ErbB3 [2]): 0.00011 s⁻¹
- kon (ErbB3 [2]): 143000 M⁻¹ s⁻¹
- Ab #6 inhibitor binding to ErbB3 (on-rate before unit conversion) (ErbB3 [3]): calculated as 1.43e5 M^−1s^−1/(Vmedia * Av/Num_cells).
- kr Ab #6_1: Ab #6 inhibitor dissociation from ErbB3 (ErbB3 [3]): 0.00011 s⁻¹
- kr Ab #6_2: Ab #6 inhibitor dissociation from a second ErbB3 (ErbB3 [3]; 2 * krmm121_1): 0.00022 s⁻¹
- kf Ab #6_1: Ab #6 inhibitor binding to ErbB3 (ErbB3 [3]; unit conversion from M^−1s^−1 /(Vmedia * Av/Num_cells), Num_cells = 30,000 per well): 7.15E−11 molecules^−1 sec^−1
- kon (ErbB3 [4]): 143000 M⁻¹ s⁻¹
- xenograft responsiveness (responder / non-responder) (BT474 xenograft tumor): non-responders
- experimentally observed responsiveness to Ab #6 based on GRR value (OVCAR8 xenograft tumor): responders
- GRR (Tumor Growth Rate Reduction) (OVCAR8 xenograft tumor; [9]): 91.4%
- growth as nude mouse xenografts under MM-121 treatment (ZR75-1 xenografts): not inhibited
- GRR (Tumor Growth Rate Reduction) [5, 10]: 0%
- effect of antibody treatment on tumor growth (in words) ([5]; vs PBS control): did not inhibit tumor growth; also recorded: no response
- GRR (Tumor Growth Rate Reduction) [6, 10]: 0%
- effect of antibody treatment on tumor growth (in words) ([6]; vs PBS control): did not inhibit tumor growth; also recorded: no response
- growth as nude mouse xenografts under MM-121 treatment (HOP92 xenografts): not inhibited
- growth as nude mouse xenografts under MM-121 treatment (MDA-MB-231 xenografts): inhibited
- GRR (Tumor Growth Rate Reduction) [7, 8]: 72.6%
- effect of antibody treatment on tumor growth (in words) ([7]; vs PBS control): inhibited tumor growth; also recorded: highest responsiveness
